Earlier results, collected in US20210265014A1, “METHOD AND ELECTRONIC SYSTEM FOR PREDICTING AT LEAST ONE FITNESS VALUE OF A PROTEIN VIA AN EXTENDED NUMERICAL SEQUENCE, RELATED COMPUTER PROGRAM PRODUCT” (PEACCEL, priority 2018, published 2021).

target: T1, Glucagon like peptide-2 (GLP-2) receptor (Rattus norvegicus, UniProt Q9Z0W0); conditions: receptor activation, fold increase over basal cAMP production
T1 sequence (Q9Z0W0 1-550): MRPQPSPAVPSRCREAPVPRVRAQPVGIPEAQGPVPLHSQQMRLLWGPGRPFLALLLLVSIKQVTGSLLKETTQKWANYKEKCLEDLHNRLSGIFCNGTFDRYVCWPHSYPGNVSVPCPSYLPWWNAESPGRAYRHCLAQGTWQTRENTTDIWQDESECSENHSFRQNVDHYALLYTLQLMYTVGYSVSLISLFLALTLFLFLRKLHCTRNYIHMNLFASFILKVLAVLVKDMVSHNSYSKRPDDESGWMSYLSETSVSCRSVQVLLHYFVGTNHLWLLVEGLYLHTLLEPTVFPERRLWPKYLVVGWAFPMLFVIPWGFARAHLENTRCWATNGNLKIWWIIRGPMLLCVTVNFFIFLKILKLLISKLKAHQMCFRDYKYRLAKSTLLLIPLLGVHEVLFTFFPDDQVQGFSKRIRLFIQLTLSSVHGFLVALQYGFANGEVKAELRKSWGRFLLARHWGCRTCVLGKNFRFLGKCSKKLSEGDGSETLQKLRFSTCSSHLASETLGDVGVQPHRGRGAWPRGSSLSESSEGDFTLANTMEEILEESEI

fold-increase in cAMP [fold]	Substance
7.59	S7A: alanine variant of Glucagon like peptide-2 (GLP-2) (HADGSFADEMNTILDNLAARDFINWLIQTKITD; Glucagon-like peptide 2; UniProt P01275 146-178, looked up, variant S7A) [Chimera S7A]
5.80	Q28A: alanine variant of Glucagon like peptide-2 (GLP-2) (HADGSFSDEMNTILDNLAARDFINWLIATKITD; Glucagon-like peptide 2; UniProt P01275 146-178, looked up, variant Q28A) [Chimera Q28A]
0.84	T32A: alanine variant of Glucagon like peptide-2 (GLP-2) (HADGSFSDEMNTILDNLAARDFINWLIQTKIAD; Glucagon-like peptide 2; UniProt P01275 146-178, looked up, variant T32A) [Chimera T32A]
7.65	N11A: alanine variant of Glucagon like peptide-2 (GLP-2) (HADGSFSDEMATILDNLAARDFINWLIQTKITD; Glucagon-like peptide 2; UniProt P01275 146-178, looked up, variant N11A) [Chimera N11A]
1.02	L17A: alanine variant of Glucagon like peptide-2 (GLP-2) (HADGSFSDEMNTILDNAAARDFINWLIQTKITD; Glucagon-like peptide 2; UniProt P01275 146-178, looked up, variant L17A) [Chimera L17A]
4.78	T29A: alanine variant of Glucagon like peptide-2 (GLP-2) (HADGSFSDEMNTILDNLAARDFINWLIQAKITD; Glucagon-like peptide 2; UniProt P01275 146-178, looked up, variant T29A) [Chimera T29A]
2.33	L26A: alanine variant of Glucagon like peptide-2 (GLP-2) (HADGSFSDEMNTILDNLAARDFINWAIQTKITD; Glucagon-like peptide 2; UniProt P01275 146-178, looked up, variant L26A) [Chimera L26A]
10.00	N24A: alanine variant of Glucagon like peptide-2 (GLP-2) (HADGSFSDEMNTILDNLAARDFIAWLIQTKITD; Glucagon-like peptide 2; UniProt P01275 146-178, looked up, variant N24A) [Chimera N24A]
1.37	W25A: alanine variant of Glucagon like peptide-2 (GLP-2) (HADGSFSDEMNTILDNLAARDFINALIQTKITD; Glucagon-like peptide 2; UniProt P01275 146-178, looked up, variant W25A) [Chimera W25A]
0.78	M10A: alanine variant of Glucagon like peptide-2 (GLP-2) (HADGSFSDEANTILDNLAARDFINWLIQTKITD; Glucagon-like peptide 2; UniProt P01275 146-178, looked up, variant M10A) [Chimera M10A]
5.92	N16A: alanine variant of Glucagon like peptide-2 (GLP-2) (HADGSFSDEMNTILDALAARDFINWLIQTKITD; Glucagon-like peptide 2; UniProt P01275 146-178, looked up, variant N16A) [Chimera N16A]
2.03	L14A: alanine variant of Glucagon like peptide-2 (GLP-2) (HADGSFSDEMNTIADNLAARDFINWLIQTKITD; Glucagon-like peptide 2; UniProt P01275 146-178, looked up, variant L14A) [Chimera L14A]
3.11	T12A: alanine variant of Glucagon like peptide-2 (GLP-2) (HADGSFSDEMNAILDNLAARDFINWLIQTKITD; Glucagon-like peptide 2; UniProt P01275 146-178, looked up, variant T12A) [Chimera T12A]
3.94	R20A: alanine variant of Glucagon like peptide-2 (GLP-2) (HADGSFSDEMNTILDNLAAADFINWLIQTKITD; Glucagon-like peptide 2; UniProt P01275 146-178, looked up, variant R20A) [Chimera R20A]
4.00	S5A: alanine variant of Glucagon like peptide-2 (GLP-2) (HADGAFSDEMNTILDNLAARDFINWLIQTKITD; Glucagon-like peptide 2; UniProt P01275 146-178, looked up, variant S5A) [Chimera S5A]

The remaining lines, values behind:

Substance	fold-increase in cAMP [fold]
I31A: alanine variant of Glucagon like peptide-2 (GLP-2) (HADGSFSDEMNTILDNLAARDFINWLIQTKATD; Glucagon-like peptide 2; UniProt P01275 146-178, looked up, variant I31A) [Chimera I31A]	4.42
I27A: alanine variant of Glucagon like peptide-2 (GLP-2) (HADGSFSDEMNTILDNLAARDFINWLAQTKITD; Glucagon-like peptide 2; UniProt P01275 146-178, looked up, variant I27A) [Chimera I27A]	5.02
D15A: alanine variant of Glucagon like peptide-2 (GLP-2) (HADGSFSDEMNTILANLAARDFINWLIQTKITD; Glucagon-like peptide 2; UniProt P01275 146-178, looked up, variant D15A) [Chimera D15A]	4.54
I23A: alanine variant of Glucagon like peptide-2 (GLP-2) (HADGSFSDEMNTILDNLAARDFANWLIQTKITD; Glucagon-like peptide 2; UniProt P01275 146-178, looked up, variant I23A) [Chimera I23A]	2.57
G4A: alanine variant of Glucagon like peptide-2 (GLP-2) (HADASFSDEMNTILDNLAARDFINWLIQTKITD; Glucagon-like peptide 2; UniProt P01275 146-178, looked up, variant G4A) [Chimera G4A]	2.87
E9A: alanine variant of Glucagon like peptide-2 (GLP-2) (HADGSFSDAMNTILDNLAARDFINWLIQTKITD; Glucagon-like peptide 2; UniProt P01275 146-178, looked up, variant E9A) [Chimera E9A]	3.76
D21A: alanine variant of Glucagon like peptide-2 (GLP-2) (HADGSFSDEMNTILDNLAARAFINWLIQTKITD; Glucagon-like peptide 2; UniProt P01275 146-178, looked up, variant D21A) [Chimera D21A]	4.42
D8A: alanine variant of Glucagon like peptide-2 (GLP-2) (HADGSFSAEMNTILDNLAARDFINWLIQTKITD; Glucagon-like peptide 2; UniProt P01275 146-178, looked up, variant D8A) [Chimera D8A]	7.53
I13A: alanine variant of Glucagon like peptide-2 (GLP-2) (HADGSFSDEMNTALDNLAARDFINWLIQTKITD; Glucagon-like peptide 2; UniProt P01275 146-178, looked up, variant I13A) [Chimera I13A]	2.45
D3A: alanine variant of Glucagon like peptide-2 (GLP-2) (HAAGSFSDEMNTILDNLAARDFINWLIQTKITD; Glucagon-like peptide 2; UniProt P01275 146-178, looked up, variant D3A) [Chimera D3A]	1.02
F6A: alanine variant of Glucagon like peptide-2 (GLP-2) (HADGSASDEMNTILDNLAARDFINWLIQTKITD; Glucagon-like peptide 2; UniProt P01275 146-178, looked up, variant F6A) [Chimera F6A]	1.67
K30A: alanine variant of Glucagon like peptide-2 (GLP-2) (HADGSFSDEMNTILDNLAARDFINWLIQTAITD; Glucagon-like peptide 2; UniProt P01275 146-178, looked up, variant K30A) [Chimera K30A]	0.84
A2G: variant of Glucagon like peptide-2 (GLP-2) [Chimera A2G]	10.00
D33A: alanine variant of Glucagon like peptide-2 (GLP-2) (HADGSFSDEMNTILDNLAARDFINWLIQTKITA; Glucagon-like peptide 2; UniProt P01275 146-178, looked up, variant D33A) [Chimera D33A]	3.41
H1A: alanine variant of Glucagon like peptide-2 (GLP-2) (AADGSFSDEMNTILDNLAARDFINWLIQTKITD; Glucagon-like peptide 2; UniProt P01275 146-178, looked up, variant H1A) [Chimera H1A]	0.78
F22A: alanine variant of Glucagon like peptide-2 (GLP-2) (HADGSFSDEMNTILDNLAARDAINWLIQTKITD; Glucagon-like peptide 2; UniProt P01275 146-178, looked up, variant F22A) [Chimera F22A]	1.61
